The supplement of paper PMC10065799, “High-throughput profiling of sequence recognition by tyrosine kinases and SH2 domains using bacterial peptide display” (eLife, 2023)

How the values were obtained:
FGFR3 = FGFR3 (UniProt P22607); assay: phosphorylation enrichment, bacterial display (enrichment ratio); higher = better substrate or ligand; peptides without Tyr show the background
Fes = Fes (UniProt P07332); assay: as above
MERTK = MERTK (UniProt Q12866); assay: as above
EPHB2 = EPHB2 (UniProt P29323); assay: as above
FGFR1 = FGFR1 (UniProt P11362); assay: as above
Fer (mouse) = assay: as above
AncSZ = assay: as above
Hck = Hck (UniProt P08631); assay: as above
Jak2 = Jak2 (UniProt O60674); assay: as above
c-Src = assay: as above
c-Abl (mouse) = assay: as above
Fyn = Fyn (UniProt P06241); assay: as above
EPHB1 = EPHB1 (UniProt P54762); assay: as above
c-Src SH2 = assay: SH2 binding enrichment of the phosphorylated peptide, bacterial display (enrichment ratio); higher = better substrate or ligand; peptides without Tyr show the background
Grb2 SH2 = Grb2 SH2 (UniProt P62993); assay: as above
SHP2-C SH2 = assay: as above
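Throughout, for SH2 binding enrichment of the phosphorylated peptide, bacterial display: peptide library displayed on the E. coli surface as eCPX fusions, selected cells deep-sequenced, score is each peptide's frequency after selection divided by its frequency in the input.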
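Throughout, for phosphorylation enrichment, bacterial display: 11-residue human phosphosite peptides and single-mutation variants displayed on the E. coli surface, counted by deep sequencing, each peptide's frequency after selection divided by its frequency in the unselected input library; frequency after pTyr selection over input frequency; kinase dosed for 20-30% of maximal phosphorylation in three min.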

Chain of Fes (P07332 whole entry, looked up): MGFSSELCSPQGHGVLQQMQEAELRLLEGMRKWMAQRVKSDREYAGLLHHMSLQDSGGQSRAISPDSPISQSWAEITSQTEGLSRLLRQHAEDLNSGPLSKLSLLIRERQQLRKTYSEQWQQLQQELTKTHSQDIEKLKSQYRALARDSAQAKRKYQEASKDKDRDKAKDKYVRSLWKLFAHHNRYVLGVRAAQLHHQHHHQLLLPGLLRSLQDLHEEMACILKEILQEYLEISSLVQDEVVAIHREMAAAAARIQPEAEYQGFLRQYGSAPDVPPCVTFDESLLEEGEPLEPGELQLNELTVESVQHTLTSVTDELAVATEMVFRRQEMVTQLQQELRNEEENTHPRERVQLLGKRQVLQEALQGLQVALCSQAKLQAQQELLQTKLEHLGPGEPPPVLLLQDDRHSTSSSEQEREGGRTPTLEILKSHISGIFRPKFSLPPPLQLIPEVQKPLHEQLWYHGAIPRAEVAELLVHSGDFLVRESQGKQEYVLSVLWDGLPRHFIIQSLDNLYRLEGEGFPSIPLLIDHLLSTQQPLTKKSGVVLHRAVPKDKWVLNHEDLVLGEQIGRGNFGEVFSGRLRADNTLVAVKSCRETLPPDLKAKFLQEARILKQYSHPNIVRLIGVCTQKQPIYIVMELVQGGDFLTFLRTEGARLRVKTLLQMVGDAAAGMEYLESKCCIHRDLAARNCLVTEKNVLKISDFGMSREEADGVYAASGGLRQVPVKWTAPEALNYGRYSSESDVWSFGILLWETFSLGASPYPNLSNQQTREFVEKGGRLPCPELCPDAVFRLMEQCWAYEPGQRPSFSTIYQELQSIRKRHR
Chain of Hck (P08631 whole entry, looked up): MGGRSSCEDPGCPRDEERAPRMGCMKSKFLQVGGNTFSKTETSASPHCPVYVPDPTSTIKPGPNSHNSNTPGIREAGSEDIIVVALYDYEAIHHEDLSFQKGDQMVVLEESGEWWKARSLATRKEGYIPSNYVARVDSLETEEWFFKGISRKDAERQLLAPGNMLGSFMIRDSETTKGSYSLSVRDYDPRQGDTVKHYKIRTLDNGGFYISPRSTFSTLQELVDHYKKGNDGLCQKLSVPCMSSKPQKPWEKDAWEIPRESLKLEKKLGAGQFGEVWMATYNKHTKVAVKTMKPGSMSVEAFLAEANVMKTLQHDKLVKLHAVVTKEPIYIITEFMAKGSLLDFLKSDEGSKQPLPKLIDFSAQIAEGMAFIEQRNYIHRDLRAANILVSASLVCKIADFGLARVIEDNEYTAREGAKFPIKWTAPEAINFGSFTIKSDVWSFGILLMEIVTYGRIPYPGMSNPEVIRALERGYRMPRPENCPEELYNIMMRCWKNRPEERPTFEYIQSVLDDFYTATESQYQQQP
Chain of EPHB2 (P29323 whole entry, looked up): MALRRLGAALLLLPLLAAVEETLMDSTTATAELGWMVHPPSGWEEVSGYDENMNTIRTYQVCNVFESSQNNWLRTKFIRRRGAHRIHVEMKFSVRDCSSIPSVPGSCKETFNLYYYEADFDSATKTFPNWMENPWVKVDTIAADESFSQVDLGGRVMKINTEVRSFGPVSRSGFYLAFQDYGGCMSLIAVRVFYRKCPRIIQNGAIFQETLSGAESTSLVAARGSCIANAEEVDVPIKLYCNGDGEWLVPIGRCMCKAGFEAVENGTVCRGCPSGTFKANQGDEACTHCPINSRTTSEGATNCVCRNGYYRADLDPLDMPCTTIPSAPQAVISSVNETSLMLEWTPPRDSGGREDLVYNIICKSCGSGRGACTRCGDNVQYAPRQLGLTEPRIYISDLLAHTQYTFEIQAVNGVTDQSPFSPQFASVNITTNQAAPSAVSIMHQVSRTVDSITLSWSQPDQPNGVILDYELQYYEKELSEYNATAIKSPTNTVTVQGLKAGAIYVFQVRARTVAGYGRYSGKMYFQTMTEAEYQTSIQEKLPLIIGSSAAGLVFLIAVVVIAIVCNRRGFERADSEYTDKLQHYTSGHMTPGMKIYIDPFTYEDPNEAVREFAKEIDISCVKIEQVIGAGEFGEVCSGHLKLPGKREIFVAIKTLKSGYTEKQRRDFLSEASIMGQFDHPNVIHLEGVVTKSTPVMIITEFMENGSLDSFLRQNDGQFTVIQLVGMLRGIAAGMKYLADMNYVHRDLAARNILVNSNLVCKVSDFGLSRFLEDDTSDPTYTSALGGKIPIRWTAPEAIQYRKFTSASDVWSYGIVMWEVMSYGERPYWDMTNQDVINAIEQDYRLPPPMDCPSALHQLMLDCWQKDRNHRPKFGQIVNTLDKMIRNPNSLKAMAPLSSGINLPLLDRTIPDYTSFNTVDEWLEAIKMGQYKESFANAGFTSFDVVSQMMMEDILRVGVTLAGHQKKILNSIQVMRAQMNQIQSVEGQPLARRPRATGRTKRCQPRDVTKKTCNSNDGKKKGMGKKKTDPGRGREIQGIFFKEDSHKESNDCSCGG
Chain of FGFR1 (P11362 whole entry, looked up): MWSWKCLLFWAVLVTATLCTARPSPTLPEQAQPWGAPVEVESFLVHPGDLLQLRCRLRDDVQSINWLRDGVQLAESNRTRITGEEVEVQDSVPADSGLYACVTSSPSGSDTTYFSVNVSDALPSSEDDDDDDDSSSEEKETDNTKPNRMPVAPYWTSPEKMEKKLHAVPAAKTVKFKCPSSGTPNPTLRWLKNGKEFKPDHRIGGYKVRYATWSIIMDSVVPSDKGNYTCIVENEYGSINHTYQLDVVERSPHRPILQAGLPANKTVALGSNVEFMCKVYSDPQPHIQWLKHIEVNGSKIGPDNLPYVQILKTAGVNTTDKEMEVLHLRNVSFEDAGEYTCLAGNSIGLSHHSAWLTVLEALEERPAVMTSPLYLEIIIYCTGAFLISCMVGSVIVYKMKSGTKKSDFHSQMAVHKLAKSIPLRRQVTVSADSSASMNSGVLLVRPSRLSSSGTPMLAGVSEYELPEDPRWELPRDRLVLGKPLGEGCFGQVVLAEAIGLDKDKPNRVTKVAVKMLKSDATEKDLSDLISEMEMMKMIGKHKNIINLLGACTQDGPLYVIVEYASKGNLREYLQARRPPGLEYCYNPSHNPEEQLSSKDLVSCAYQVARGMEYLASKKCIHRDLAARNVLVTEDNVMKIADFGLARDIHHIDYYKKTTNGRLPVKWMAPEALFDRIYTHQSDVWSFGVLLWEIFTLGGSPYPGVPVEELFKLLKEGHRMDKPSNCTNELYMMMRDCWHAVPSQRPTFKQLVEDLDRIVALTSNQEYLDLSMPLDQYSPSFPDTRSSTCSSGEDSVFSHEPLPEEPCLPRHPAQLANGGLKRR
Chain of Fyn (P06241 whole entry, looked up): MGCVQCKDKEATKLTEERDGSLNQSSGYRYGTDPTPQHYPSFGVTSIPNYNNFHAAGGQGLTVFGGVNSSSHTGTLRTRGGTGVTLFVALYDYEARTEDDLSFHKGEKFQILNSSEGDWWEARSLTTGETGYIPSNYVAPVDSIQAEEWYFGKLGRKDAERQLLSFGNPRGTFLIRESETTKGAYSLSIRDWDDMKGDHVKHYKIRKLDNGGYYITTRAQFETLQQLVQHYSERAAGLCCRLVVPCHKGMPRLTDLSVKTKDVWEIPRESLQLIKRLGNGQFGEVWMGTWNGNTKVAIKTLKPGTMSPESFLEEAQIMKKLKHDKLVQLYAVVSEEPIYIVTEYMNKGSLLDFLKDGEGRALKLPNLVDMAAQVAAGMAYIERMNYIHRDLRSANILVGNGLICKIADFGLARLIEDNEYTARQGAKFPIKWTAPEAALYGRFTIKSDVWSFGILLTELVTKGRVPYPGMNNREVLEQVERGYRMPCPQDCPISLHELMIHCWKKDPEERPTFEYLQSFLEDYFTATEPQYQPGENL
Chain of MERTK (Q12866 whole entry, looked up): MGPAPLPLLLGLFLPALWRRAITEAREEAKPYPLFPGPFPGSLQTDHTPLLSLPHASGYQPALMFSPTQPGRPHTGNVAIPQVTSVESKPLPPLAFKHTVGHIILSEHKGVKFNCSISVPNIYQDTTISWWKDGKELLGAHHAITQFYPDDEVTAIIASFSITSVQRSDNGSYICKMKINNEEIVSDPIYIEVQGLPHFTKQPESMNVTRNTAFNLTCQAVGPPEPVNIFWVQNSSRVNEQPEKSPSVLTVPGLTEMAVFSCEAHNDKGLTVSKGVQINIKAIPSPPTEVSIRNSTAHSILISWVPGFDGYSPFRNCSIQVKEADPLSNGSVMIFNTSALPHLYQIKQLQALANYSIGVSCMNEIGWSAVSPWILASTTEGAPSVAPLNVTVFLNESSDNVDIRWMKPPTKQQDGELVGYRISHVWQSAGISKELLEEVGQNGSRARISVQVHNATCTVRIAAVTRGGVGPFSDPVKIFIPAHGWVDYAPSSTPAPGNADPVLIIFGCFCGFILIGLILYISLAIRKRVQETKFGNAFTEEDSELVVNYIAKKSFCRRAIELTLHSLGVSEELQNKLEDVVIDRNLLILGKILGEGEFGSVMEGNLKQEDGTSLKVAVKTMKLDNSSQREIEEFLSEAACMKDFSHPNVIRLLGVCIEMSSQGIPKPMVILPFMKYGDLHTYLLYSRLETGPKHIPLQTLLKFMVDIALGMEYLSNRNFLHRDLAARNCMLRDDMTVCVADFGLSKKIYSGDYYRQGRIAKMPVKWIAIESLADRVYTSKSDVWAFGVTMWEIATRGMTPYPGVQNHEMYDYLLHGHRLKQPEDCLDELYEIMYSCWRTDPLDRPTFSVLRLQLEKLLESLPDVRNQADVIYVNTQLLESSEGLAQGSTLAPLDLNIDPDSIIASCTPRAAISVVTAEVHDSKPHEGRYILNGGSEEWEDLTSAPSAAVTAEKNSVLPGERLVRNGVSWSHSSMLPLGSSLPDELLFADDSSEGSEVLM

Sequence | SH2 binding enrichment (c-Src SH2) | SH2 binding enrichment (Grb2 SH2) | SH2 binding enrichment (SHP2-C SH2) | phosphorylation enrichment (FGFR3) | phosphorylation enrichment (Fes) | phosphorylation enrichment (MERTK) | phosphorylation enrichment (EPHB2) | phosphorylation enrichment (FGFR1) | phosphorylation enrichment (Fer (mouse)) | phosphorylation enrichment (AncSZ) | phosphorylation enrichment (Hck) | phosphorylation enrichment (Jak2) | phosphorylation enrichment (c-Src) | phosphorylation enrichment (c-Abl (mouse)) | phosphorylation enrichment (Fyn) | phosphorylation enrichment (EPHB1)
DVAKEYGHLLP [HRC_Y99_S96A] | 0.429 | 0.984 | 0.604 | 0.522 | 0.822 | 0.402 | 0.512 | 0.436 | 0.403 | 0.723 | 0.547 | 0.781 | 0.52 | 0.555 | 0.422 | 0.517
CLGNQYVNVMN [SLC3A1_Y461_R456C] | 2.27 | 18.2 | 1.11 | 0.955 | 1.05 | 0.336 | 0.608 | 0.567 | 0.475 | 1.11 | 0.448 | 1 | 0.437 | 0.689 | 0.403 | 0.588
TVFENYVADIK [RHOA_Y42_E47K] | 0.538 | 0.846 | 0.607 | 0.688 | 0.878 | 0.442 | 0.676 | 0.48 | 0.495 | 0.922 | 0.534 | 0.889 | 0.536 | 0.699 | 0.534 | 0.845
EVEPRYVVLYD [ERCC4_Y577] | 8.72 | 0.894 | 1.84 | 0.986 | 1.13 | 5.22 | 3.44 | 1.36 | 0.547 | 1.22 | 0.646 | 1.07 | 0.683 | 0.91 | 0.664 | 3.5
GADDSYFTVRS [ZAP70_Y492_A495V_YF] | 0.645 | 0.854 | 0.625 | 2.62 | 1 | 0.468 | 0.498 | 3.54 | 0.484 | 1.59 | 0.968 | 1.73 | 0.846 | 0.665 | 0.604 | 0.558
VCHELYNAIRD [PBRM1_Y54_T56A] | 1.66 | 0.893 | 0.737 | 0.702 | 0.933 | 0.43 | 0.574 | 0.464 | 0.567 | 0.939 | 2.62 | 0.79 | 1.33 | 0.693 | 0.672 | 0.543
SSREEYFIGGG [GYPC_Y126_K124E] | 0.486 | 0.836 | 0.895 | 1.94 | 0.909 | 0.471 | 0.44 | 0.562 | 0.486 | 1.05 | 0.474 | 0.894 | 0.655 | 0.71 | 0.574 | 0.457
KRLAVYQAGAR [APOE_Y180] | 0.879 | 1.1 | 1.05 | 0.365 | 0.504 | 0.346 | 0.399 | 0.403 | 0.333 | 0.495 | 0.335 | 0.464 | 0.378 | 0.398 | 0.405 | 0.316
TQNGVYSAANY [DDX5_Y535] | 0.838 | 0.842 | 0.536 | 0.514 | 0.699 | 4.8 | 1.85 | 0.454 | 1.87 | 0.69 | 8.68 | 0.5 | 6.11 | 1.04 | 7.45 | 1.26
RRVPVYGGRGA [QDPR_Y16_L14P] | 0.527 | 0.852 | 0.774 | 0.627 | 0.836 | 0.779 | 0.512 | 0.762 | 0.626 | 0.969 | 0.702 | 1.36 | 1.15 | 1.28 | 0.626 | 0.573
KKKKQYKDKYL [CASK_Y708] | 0.275 | 0.872 | 0.244 | 0.471 | 0.534 | 0.631 | 0.393 | 0.506 | 0.587 | 0.614 | 0.548 | 0.475 | 0.728 | 0.837 | 0.454 | 0.53
GIVEDYRPPVF [ACVRL1_Y421_F425V_YF] | 0.353 | 0.726 | 0.738 | 0.51 | 0.777 | 0.445 | 0.46 | 0.414 | 0.422 | 0.767 | 0.39 | 0.625 | 0.414 | 0.63 | 0.455 | 0.372
NKEPRYQEDPP [TJP2_Y479] | 0.78 | 1.43 | 0.822 | 0.823 | 0.999 | 0.508 | 0.607 | 0.625 | 0.59 | 0.852 | 0.546 | 0.832 | 0.461 | 0.48 | 0.693 | 0.525
PRLMLYNPTTF [EGFR_Y270_P266R_YF] | 0.505 | 0.968 | 0.631 | 1.04 | 1.18 | 0.703 | 0.811 | 0.772 | 0.848 | 1.16 | 0.618 | 1.38 | 0.729 | 1.12 | 0.748 | 0.763
NFRTTYVNANE [KCNH2_Y475] | 2.03 | 15.1 | 1.48 | 0.719 | 1.27 | 0.482 | 0.464 | 0.498 | 0.551 | 0.892 | 0.558 | 1.29 | 0.589 | 0.61 | 0.444 | 0.404

More lines, main results first:

SH2 binding enrichment (c-Src SH2) | SH2 binding enrichment (Grb2 SH2) | SH2 binding enrichment (SHP2-C SH2) | Sequence | phosphorylation enrichment (FGFR3) | phosphorylation enrichment (Fes) | phosphorylation enrichment (MERTK) | phosphorylation enrichment (EPHB2) | phosphorylation enrichment (FGFR1) | phosphorylation enrichment (Fer (mouse)) | phosphorylation enrichment (AncSZ) | phosphorylation enrichment (Hck) | phosphorylation enrichment (Jak2) | phosphorylation enrichment (c-Src) | phosphorylation enrichment (c-Abl (mouse)) | phosphorylation enrichment (Fyn) | phosphorylation enrichment (EPHB1)
0.781 | 0.889 | 0.991 | NNHGNYIVRLG [ETFDH_Y172] | 0.595 | 0.723 | 0.416 | 0.563 | 0.456 | 0.438 | 0.619 | 0.481 | 0.702 | 0.547 | 0.667 | 0.5 | 0.548
1.06 | 1.17 | 0.855 | EMFNPYYGLFE [NEDD4L_Y679] | 4.84 | 1.64 | 6.86 | 5.92 | 5.41 | 6.32 | 2.04 | 7.91 | 6.66 | 6.95 | 2.2 | 8.62 | 5.74
0.504 | 0.693 | 0.73 | LYDPDYMKVIL [CYP4A22_Y104] | 1.07 | 1.54 | 1.51 | 2.61 | 1.54 | 1.48 | 1.96 | 0.787 | 2.27 | 0.988 | 1.36 | 0.72 | 2.9
2.25 | 1.18 | 0.672 | HEGKIYEYNQV [ZNF665_Y162] | 0.81 | 1.56 | 6.51 | 0.987 | 0.746 | 18.4 | 1.98 | 2.04 | 1.39 | 4.23 | 5.38 | 3.02 | 1.06
0.531 | 0.845 | 0.806 | CNSFQYGGGGG [NPPA_Y151_R150Q] | 0.549 | 0.919 | 0.447 | 0.452 | 0.409 | 0.512 | 0.794 | 0.497 | 0.716 | 0.532 | 0.731 | 0.436 | 0.501
0.515 | 0.89 | 0.873 | LAVNPYGPPDL | 0.911 | 1.23 | 0.517 | 0.408 | 0.798 | 0.77 | 1.36 | 0.682 | 1.03 | 0.611 | 1.32 | 0.708 | 0.846
0.513 | 0.678 | 0.683 | DGQSVYKLTDF [TBK1_Y153] | 0.474 | 0.775 | 0.471 | 0.37 | 0.434 | 0.775 | 0.725 | 0.751 | 0.765 | 3.06 | 0.444 | 2.52 | 0.426
0.401 | 0.841 | 0.595 | NYYDTYIKTCL [IQGAP2_Y1445] | 5.88 | 1.25 | 3.49 | 5.75 | 7.55 | 1.1 | 1.93 | 2.38 | 1.5 | 2.34 | 0.928 | 3.03 | 5.9
0.59 | 1.11 | 0.668 | WPQKLYNNFVN [MYO5C_Y526_L522P] | 0.518 | 0.884 | 0.505 | 0.546 | 0.445 | 0.377 | 0.795 | 0.528 | 0.725 | 0.626 | 0.687 | 0.439 | 0.407
0.606 | 0.832 | 0.614 | AFRHGYFDEEM [PLEC_Y2971_R2969H_YF] | 0.676 | 1.12 | 0.478 | 0.59 | 0.554 | 0.593 | 1.13 | 0.456 | 1.3 | 0.412 | 0.806 | 0.487 | 0.498
0.764 | 0.89 | 0.641 | SREALYNETDP [CACNA1A_Y794_M797T] | 0.815 | 1.37 | 0.625 | 0.642 | 0.559 | 0.663 | 1.16 | 0.739 | 1.14 | 0.722 | 0.996 | 0.624 | 0.67
0.394 | 0.731 | 0.411 | SQSPHYFRSGR [GPATCH8_Y1038] | 0.425 | 0.819 | 0.502 | 0.394 | 0.383 | 0.427 | 0.719 | 0.389 | 0.687 | 0.538 | 0.544 | 0.476 | 0.56
0.603 | 0.97 | 0.962 | HQNGMYGLHQD [SGSH_Y89] | 0.516 | 0.886 | 0.678 | 0.591 | 0.673 | 0.656 | 0.643 | 0.564 | 0.726 | 0.647 | 0.726 | 0.568 | 0.346
0.48 | 0.785 | 0.576 | MRTMGYMPREM [CABP5_Y62_T65R] | 0.508 | 0.594 | 0.435 | 0.374 | 0.397 | 0.411 | 0.494 | 0.405 | 0.606 | 0.356 | 0.507 | 0.438 | 0.369
